# Results reported in patent US20170158747A1 (Novartis, published 2017).
# T1: human IL10 receptor (IL10R1/R2 receptor complex) on human whole blood cells (human, UniProt Q13651 22-578; Q08334 20-325)
# T1 sequence (looked up) 1: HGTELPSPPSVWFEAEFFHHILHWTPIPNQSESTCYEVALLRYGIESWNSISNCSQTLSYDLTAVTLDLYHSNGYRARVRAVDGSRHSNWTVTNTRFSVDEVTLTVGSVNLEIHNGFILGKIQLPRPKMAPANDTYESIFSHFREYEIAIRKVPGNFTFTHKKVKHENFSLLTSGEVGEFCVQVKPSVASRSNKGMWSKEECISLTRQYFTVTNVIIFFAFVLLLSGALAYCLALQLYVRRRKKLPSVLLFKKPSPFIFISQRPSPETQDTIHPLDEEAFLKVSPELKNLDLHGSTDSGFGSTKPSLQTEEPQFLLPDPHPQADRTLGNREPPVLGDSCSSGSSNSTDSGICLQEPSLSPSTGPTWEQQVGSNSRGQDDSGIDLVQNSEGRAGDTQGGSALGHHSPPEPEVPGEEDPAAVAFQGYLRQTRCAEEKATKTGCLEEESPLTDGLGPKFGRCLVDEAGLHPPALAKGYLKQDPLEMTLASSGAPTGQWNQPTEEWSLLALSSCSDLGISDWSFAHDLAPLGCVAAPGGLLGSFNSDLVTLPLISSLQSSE
# T1 sequence (looked up) 2: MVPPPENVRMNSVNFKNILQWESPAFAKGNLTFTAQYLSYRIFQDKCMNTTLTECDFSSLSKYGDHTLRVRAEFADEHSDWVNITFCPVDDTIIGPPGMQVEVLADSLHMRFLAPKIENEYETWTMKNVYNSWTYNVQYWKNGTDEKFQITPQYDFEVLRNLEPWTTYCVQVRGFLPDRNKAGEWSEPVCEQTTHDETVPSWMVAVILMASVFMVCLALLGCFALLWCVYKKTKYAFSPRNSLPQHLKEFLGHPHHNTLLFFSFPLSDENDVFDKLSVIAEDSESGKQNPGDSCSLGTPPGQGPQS
# T2: mouse IL10 receptor on mouse cells (whole blood, colon) (mouse, UniProt Q61727 17-575; Q61190 20-349)
# T2 sequence (looked up) 1: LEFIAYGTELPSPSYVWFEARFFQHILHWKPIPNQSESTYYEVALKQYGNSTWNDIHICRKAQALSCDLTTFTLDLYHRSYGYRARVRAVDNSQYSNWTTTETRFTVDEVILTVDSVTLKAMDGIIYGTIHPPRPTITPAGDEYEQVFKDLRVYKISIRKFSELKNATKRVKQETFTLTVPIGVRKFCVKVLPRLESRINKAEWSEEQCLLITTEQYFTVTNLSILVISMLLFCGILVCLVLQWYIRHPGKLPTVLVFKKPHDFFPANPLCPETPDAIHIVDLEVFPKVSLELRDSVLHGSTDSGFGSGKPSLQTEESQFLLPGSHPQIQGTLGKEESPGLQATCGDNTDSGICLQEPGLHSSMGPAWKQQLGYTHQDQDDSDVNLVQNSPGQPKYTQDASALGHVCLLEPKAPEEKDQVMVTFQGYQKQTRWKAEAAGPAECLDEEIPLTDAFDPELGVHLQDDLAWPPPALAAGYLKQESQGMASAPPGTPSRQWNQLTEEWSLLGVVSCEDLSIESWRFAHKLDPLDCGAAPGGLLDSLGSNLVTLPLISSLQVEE
# T2 sequence (looked up) 2: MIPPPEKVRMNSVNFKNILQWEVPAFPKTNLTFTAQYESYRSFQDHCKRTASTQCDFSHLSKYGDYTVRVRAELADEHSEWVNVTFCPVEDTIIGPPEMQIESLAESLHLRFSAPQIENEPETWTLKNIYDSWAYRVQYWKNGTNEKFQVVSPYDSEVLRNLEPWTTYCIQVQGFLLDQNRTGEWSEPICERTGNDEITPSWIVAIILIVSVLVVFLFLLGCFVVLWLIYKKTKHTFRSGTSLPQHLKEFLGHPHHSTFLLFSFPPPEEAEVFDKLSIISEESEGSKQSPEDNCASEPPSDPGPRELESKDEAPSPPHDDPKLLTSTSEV
# T3: cynomolgus monkey IL10 receptor on cynomolgus whole blood cells (cynomolgus monkey, UniProt A0A2K5WJ66 22-576; A0A7N9D6W2 20-323)
# T3 sequence 1: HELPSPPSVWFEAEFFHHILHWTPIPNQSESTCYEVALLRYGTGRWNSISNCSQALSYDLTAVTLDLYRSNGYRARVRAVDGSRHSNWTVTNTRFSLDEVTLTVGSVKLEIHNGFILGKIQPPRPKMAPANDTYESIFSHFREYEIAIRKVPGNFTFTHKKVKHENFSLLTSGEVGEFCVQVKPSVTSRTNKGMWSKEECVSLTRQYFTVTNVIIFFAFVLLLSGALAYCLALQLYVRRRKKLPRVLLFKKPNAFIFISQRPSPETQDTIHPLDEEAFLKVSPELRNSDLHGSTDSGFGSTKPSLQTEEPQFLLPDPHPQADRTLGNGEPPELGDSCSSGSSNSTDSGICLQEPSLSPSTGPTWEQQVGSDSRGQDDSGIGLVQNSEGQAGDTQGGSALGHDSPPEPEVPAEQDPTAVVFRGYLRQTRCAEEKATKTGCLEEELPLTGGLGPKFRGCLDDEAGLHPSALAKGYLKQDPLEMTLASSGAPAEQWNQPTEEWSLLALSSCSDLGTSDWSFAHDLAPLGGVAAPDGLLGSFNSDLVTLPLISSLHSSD
# T3 sequence 2: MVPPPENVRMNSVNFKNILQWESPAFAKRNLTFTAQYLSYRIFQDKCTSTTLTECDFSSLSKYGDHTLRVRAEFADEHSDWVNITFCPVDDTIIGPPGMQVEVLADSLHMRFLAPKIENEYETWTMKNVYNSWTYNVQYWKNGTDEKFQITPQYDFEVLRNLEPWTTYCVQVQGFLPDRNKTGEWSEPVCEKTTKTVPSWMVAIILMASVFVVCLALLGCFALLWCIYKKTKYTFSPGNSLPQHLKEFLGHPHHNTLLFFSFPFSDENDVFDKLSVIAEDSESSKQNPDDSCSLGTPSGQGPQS
# B1: IgGIL10M13 (antibody)
# heavy: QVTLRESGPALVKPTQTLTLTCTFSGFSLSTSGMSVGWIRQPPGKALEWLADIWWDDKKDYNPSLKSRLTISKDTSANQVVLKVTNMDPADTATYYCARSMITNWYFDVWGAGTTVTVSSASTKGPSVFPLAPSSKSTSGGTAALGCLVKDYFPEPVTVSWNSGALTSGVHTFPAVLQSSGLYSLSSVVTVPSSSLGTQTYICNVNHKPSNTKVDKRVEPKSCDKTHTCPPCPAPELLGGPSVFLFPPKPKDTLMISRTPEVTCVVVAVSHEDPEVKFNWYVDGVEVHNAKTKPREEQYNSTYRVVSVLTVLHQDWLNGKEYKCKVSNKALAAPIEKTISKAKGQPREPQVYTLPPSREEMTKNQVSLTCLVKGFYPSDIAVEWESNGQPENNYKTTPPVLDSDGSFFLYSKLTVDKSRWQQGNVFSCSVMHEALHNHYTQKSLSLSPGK
# light: DIQMTQSPSTLSASVGDRVTITCKAQLSSPGQGTQSENSCTHFPGNLPNMLRDLRDAFSRVKTFFQMKDQLDNLLLKESLLEDFKGYLGCQALSEMIQFYLEEVMPQAENQDPDIKAHVNSLGENLKTLRLRLRRCHRFLPCENGGGSGGKSKAVEQVKNAFNKLQEKGIYKAMSEFDIFINYIEAYMTMKIRNVGYMHWYQQKPGKAPKLLIYDTSKLASGVPSRFSGSGSGTAFTLTISSLQPDDFATYYCFQGSGYPFTFGGGTKLEIKRTVAAPSVFIFPPSDEQLKSGTASVVCLLNNFYPREAKVQWKVDNALQSGNSQESVTEQDSKDSTYSLSSTLTLSKADYEKHKVYACEVTHQGLSSPVTKSFNRGEC
# Legend:
# Experiment in all cases: cell-based or functional assay
# [1] = target: T1, human IL10 receptor (IL10R1/R2 receptor …)
# [2] = target: T2, mouse IL10 receptor on mouse cells …
# [3] = target: T3, cynomolgus monkey IL10 receptor on …
binder,measurement,setting,value
B1,"IC50, inhibition of LPS-induced TNFα production, ex vivo human whole blood",[1],0.0252 nM
same,"IC50, inhibition of LPS-induced TNFα production, ex vivo mouse whole blood",[2],0.012 nM
same,"IC50, inhibition of LPS-induced TNFα production, ex vivo cynomolgus whole blood",[3],0.00667 nM
